Reference: publication PMC6558041

Legend:
[1] = target: hemolysin B (HlyB), ABC transporter of the HlyA type I secretion system (E. coli) (UniProt P08716)
[2] = target: hemolysin B (HlyB), ABC transporter of the HlyA type I secretion system (E. coli) (UniProt P08716); remark: listed apart in the source
[3] = target: HlyB∆CLD, truncated HlyB lacking the N-terminal C39 peptidase-like domain (E. coli)

Chain of UniProt P08716 (P08716 whole entry, the tested form may be a part): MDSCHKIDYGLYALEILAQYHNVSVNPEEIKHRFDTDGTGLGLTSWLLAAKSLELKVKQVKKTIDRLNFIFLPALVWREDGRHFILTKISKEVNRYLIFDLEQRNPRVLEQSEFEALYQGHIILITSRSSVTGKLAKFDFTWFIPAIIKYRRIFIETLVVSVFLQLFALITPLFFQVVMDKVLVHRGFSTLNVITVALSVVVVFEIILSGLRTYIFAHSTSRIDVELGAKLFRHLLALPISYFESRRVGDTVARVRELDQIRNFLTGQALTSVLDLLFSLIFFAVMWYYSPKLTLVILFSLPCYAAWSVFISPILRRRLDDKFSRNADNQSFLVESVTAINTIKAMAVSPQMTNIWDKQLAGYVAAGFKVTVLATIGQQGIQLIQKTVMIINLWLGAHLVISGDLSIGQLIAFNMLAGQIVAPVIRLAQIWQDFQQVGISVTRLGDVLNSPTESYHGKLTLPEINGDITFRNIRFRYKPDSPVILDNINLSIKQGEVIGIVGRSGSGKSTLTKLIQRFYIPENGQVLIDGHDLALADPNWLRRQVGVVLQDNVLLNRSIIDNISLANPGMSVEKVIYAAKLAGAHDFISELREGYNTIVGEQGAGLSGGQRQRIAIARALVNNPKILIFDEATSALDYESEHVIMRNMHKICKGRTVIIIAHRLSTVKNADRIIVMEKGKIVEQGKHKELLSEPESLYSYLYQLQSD

proHlyA, full-length hemolytically inactive (non-acylated) precursor form of hemolysin A (from UniProt P08715 1-1024) (natural protein)
inhibition of the basal ATPase activity of HlyB reconstituted with LPC/DOPC mixtures or LPC alone in saposin-A nanoparticles, with 10 µM unfolded proHlyA [1]: 40%
inhibition of the basal ATPase activity of HlyB in LPC-saposin-A nanoparticles by unfolded proHlyA, 0-10 µM, 4 mM ATP, 25 °C [2]: 30%
stimulation of ATP hydrolysis of HlyB in LPC-saposin-A nanoparticles by folded proHlyA (Ca2+), 0-10 µM, 4 mM ATP, 25 °C [2]: 60%
stimulation of the basal ATPase activity of HlyB∆CLD in LPC-saposin-A nanoparticles by folded proHlyA, 0-10 µM (Michaelis-Menten fit with substrate inhibition) [3]: 2 fold
stimulation of the basal ATPase activity of HlyB∆CLD in LPC-saposin-A nanoparticles by unfolded proHlyA, 0-10 µM, with strong substrate inhibition at higher concentrations [3]: 4 fold
